Experimental findings from patent publication US20130071379A1 are described below.

For orientation: Kd means the constant that tells how readily two partners part at equilibrium. A lower Kd goes with a tighter complex.

Sequences and labels used below:
B1: 1B20 variant G2 (antibody, part only; not given: light chain, probably the common parent VL, V domains shown, part only)
VH: QVKLVQSGAEVKKPGESLKISCKGSGYSFTDYYISWVRQMPGKGLEWMGIIYPGDSYTHYNPKFQGQVTISADKSISTAYLQWSSLKASDTAMYYCARDRWSKPLFDVWGQGTLVTVSS
B2: 1B20 variant A4 (antibody, part only; not given: light chain, probably the common parent VL, V domains shown, part only)
VH: QVQLVQSGAEVKKPGESLKISCKGSGYSFTDYYISWVRQMPGKGLEWMGSIYPGDSYTHYSHKFQGQVTISADKSISTAYLQWSSLKASDTAIYYCARDHWSRPFFDVWGQGTLVTVSS
B3: 1B20 variant A6 (antibody, part only; not given: light chain, V domains shown, part only)
VH: QVQLVQSGAEVKKPGESLKISCKGSGYSFTNYYISWVRQMPGKGLEWMGLIYPGDSYTRYNPSFQGQVTISADKSISTAYLQWSSLKASDTAMYYCARDYYSRPFSDIWGQGTLVTVSS
B4: 1B20 variant H4 (antibody, part only; not given: light chain, probably the common parent VL, V domains shown, part only)
VH: QVQLVQSGAEVKKPGESLKISCKGSGYSFTNYYITWVRQMPGRGLEWMGIIYPGDSYTRYNPKFQGQVTISADKSISTAYLQWSSLKASDTAMYYCARDHWSKPFSDVWGQGTLVTVSS
B5: 1B20 variant A7 (antibody, part only; not given: light chain, V domains shown, part only)
VH: QVQLVQSGAEVKKPGESLKISCKGSGYSFTNYYISWVRQMPGKGLEWMGIIYPGDSYTRYNPNFQGQVTISADKSISTAYLQWSSLKASDTAMYYCARDYWSKPLSDVWGQGTLVTVSS
B6: 1B20 variant E1 (antibody, part only; not given: light chain, probably the common parent VL, V domains shown, part only)
VH: QVQLVQSGAEVKKPGESLKISCKGSGYSFTNYYISWVRQMPGKGLEWMGMIYPGDSYTSYNPNFQGQVTISADKSISTAYLQWSSLKASDTAMYYCARDHWSKPFFDIWGQGTLVTVSS
B7: 1B20 variant H5 (antibody, part only; not given: light chain, probably the common parent VL, V domains shown, part only)
VH: QVQLVQSGAEVKKPGESLKISCKGSGYSFTDYYISWVRQMPGKGLEWMGIIYPGDSYTSYSPRFQGQVTISADKSISTAYLQWSSLKASDTAMYYCARDYWSRPLFDVWGQGTLVTVSS
B8: 1B20 variant C3 (antibody, part only; not given: light chain, probably the common parent VL, V domains shown, part only)
VH: QVKLVQSGAEVKKPGESLKISCKGSGYSFTNYYIAWVRQMPGKGLEWMGIIYPGDSYTHYNPKFQGQVTISADKSISTAYLQWSSLKASDTAMYYCARDHGYKPFSDIWGQGTLVTVSS
B9: 1B20 variant F6 (antibody, part only; not given: light chain, probably the common parent VL, V domains shown, part only)
VH: QVQLVQSGAEVKKPGESLKISCKGSGYSFTNYYISWVRQMPGKGLEWMGLIYPGDSYTHYNPSFQGQVTISADKSISTAYLQWSSLKASDTAMYYCARDHWYKPFSDIWGQGTLVTVSS
B10: 1B20 variant B9 (antibody, part only; not given: light chain, V domains shown, part only)
VH: QVQLVQSGAEVKKPGESLKISCKGSGYSFTNYYISWVRQMPGKGLEWMGIIYPGDSYIHYNQNFQGQVTISADKSISTAYLQWSSLKASDTAMYYCARDYYSRPFSDIWGQGTLVTVSS
B11: 1B20 variant G4 (antibody, part only; not given: light chain, probably the common parent VL, V domains shown, part only)
VH: QVQLVQSGAEVKKPGESLKISCKGSGYSFTNYYISWVRQMPGKGLEWMGLIYPGDSYTRYSPRFQGQVTISADKSISTAYLQWSSLKASDTAMYYCARDHGYKPYSDIWGQGTLVTVSS
B12: 1B20 variant B3 (antibody, part only; not given: light chain, probably the common parent VL, V domains shown, part only)
VH: QVQLVQSGAEVKKPGESLKISCKGSGYSFTNYYISWVRQMPGKGLEWMGMIYPGDSYTSYNPKFQGQVTISADKSISTAYLQWSSLKASDTAMYYCARDHWSKPYFDIWGQGTLVTVSS
B13: 1B20 variant G5 (antibody, part only; not given: light chain, V domains shown, part only)
VH: QVQLVQSGAEVKKPGESLKISCKGSGYSFTDYYISWVRQMPGKGLEWMGLIYPGDSYTRYSPNFQGQVTISADKSISTAYLQWSSLKASDTAMYYCARDHGYRPYSDIWGQGTLVTVSS
B14: 1B20 variant E2 (antibody, part only; not given: light chain, probably the common parent VL, V domains shown, part only)
VH: QVQLVQSGAEVKKPGESLKISCKGSGYSFTNYYISWVRQMPGKGLEWMGLIYPGDSYTRYNRKFQGQVTISADKSISTAYLQWSSLKASDTAMYYCARDYYSRPLSDVWGQGTLVTVSS
B15: 1B20 variant H1 (antibody, part only; not given: light chain, probably the common parent VL, V domains shown, part only)
VH: QVQLVQSGAEVKKPGESLKISCKGSGYSFTDYYIAWVRQMPGKGLEWMGIIYPGDSYTRYNPRFQGQVTISADKSISTAYLQWSSLKASDTAMYYCARDYWSKPLSDIWGQGTLVTVSS
B16: 1B20 variant F8 (antibody, part only; not given: light chain, probably the common parent VL, V domains shown, part only)
VH: QVQLVQSGAEVKKPGESLKISCKGSGYSFTNYYISWVRQMPGKGLEWMGMIYPGDSYTNYNQKFQGQVTISADKSISTAYLQWSSLKASDTAMYYCARDYWSRPYSDIWGQGTLVTVSS
B17: 1B20 variant F4 (antibody, part only; not given: light chain, probably the common parent VL, V domains shown, part only)
VH: QVQLVQSGAEVKKPGESLKISCKGSGYSFTDYYISWVRQMPGKGLEWMGLIYPGDSYTRYSPSFQGQVTISADKSISTAYLQWSSLKASDTAMYYCARDYYSKPLFDVWGQGTLVTVSS
B18: 1B20 variant G3 (antibody, part only; not given: light chain, probably the common parent VL, V domains shown, part only)
VH: QVQLVQSGAEVKKPGESLKISCKGSGYSFTNYYISWVRQMPGKGLEWMGLIYPGDSYTRYNPKFQGQVTISADKSISTAYLQWSSLKASDTAMYYCARDYYSRPYSDVWGQGTLVTVSS
B19: 1B20 variant F1 (antibody, part only; not given: light chain, probably the common parent VL, V domains shown, part only)
VH: QVQLVQSGAEVKKPGESLKISCKGSGYSFTDYYISWVRQMPGKGLEWMGLIYPGDSYTNYSPKFQGQVTISADKSISTAYLQWSSLKASDTAMYYCARDHWSKPLSDVWGQGTLVTVSS
B20: 1B20 variant C2 (antibody, part only; not given: light chain, probably the common parent VL, V domains shown, part only)
VH: QVQLVQSGAEVKKPGESLKISCKGSGYSFTDYYIAWVRQMPGKGLEWMGLIYPGDSYTSYNPRFQGQVTISADKSISTAYLQWSSLKASDTAMYYCARDYWSTPYFDIWGQGTLVTVSS
B21: 1B20 variant G8 (antibody, part only; not given: light chain, probably the common parent VL, V domains shown, part only)
VH: QVQLVQSGAEVKKPGESLKISCKGSGYSFTDYYISWVRQMPGKGLEWMGLIYPGDSYTHYNPNFQGQVTISADKSISTAYLQWSSLKASDTAMYYCARDHWSKPYFDVWGQGTLVTVSS
B22: 1B20 variant A1 (antibody, part only; not given: light chain, probably the common parent VL, V domains shown, part only)
VH: QVQLVQSGAEVKKPGESLKISCKGSGYSFTDYYISWVRQMPGKGLEWMGLIYPGDSYTRYNPSFQGQVTISADKSISTAYLQWSSLKASDTAMYYCARDYWSKPLSDIWGQGTLVTVSS
B23: 1B20 variant D5 (antibody, part only; not given: light chain, probably the common parent VL, V domains shown, part only)
VH: QVQLVQSGAEVKKPGESLKISCKGSGYSFTNYYITWVRQMPGKGLEWMGLIYPGDSYTRYSPRFQGQVTISADKSISTAYLQWSSLKASDTAMYYCARDHWSRPYSDVWGQGTLVTVSS
B24: 1B20 variant B2 (antibody, part only; not given: light chain, probably the common parent VL, V domains shown, part only)
VH: QVQLVQSGAEVKKPGESLKISCKGSGYSFTNYYISWVRQMPGKGLEWMGLIYPGDSYTNYNPNFQGQVTISADKSISTAYLQWSSLKASDTAMYYCARDHYSTPFFDVWGQGTLVTVSS
B25: 1B20 variant A8 (antibody, part only; not given: light chain, probably the common parent VL, V domains shown, part only)
VH: QVQLVQSGAEVKKPGESLKISCKGSGYSFTNYYISWVRQMPGKGLEWMGMIYPGDSYTHYSPNFQGQVTISADKSISTAYLQWSSLKASDTAMYYCARDYWSKPYFDVWGQGTLVTVSS
B26: 1B20 variant B4 (antibody, part only; not given: light chain, probably the common parent VL, V domains shown, part only)
VH: QVQLVQSGAEVKKPGESLKISCKGSGYSFTDYYISWVRQMPGKGLEWMGLIYPGDSYTHYNPNFQGQVTISADKSISTAYLQWSSLKASDTAMYYCARDYWSKPLFDVWGQGTLVTVSS
B27: 1B20 variant H8 (antibody, part only; not given: light chain, probably the common parent VL, V domains shown, part only)
VH: QVQLVQSGAEVKKPGESLKISCKGSGYSFTDYYISWVRQMPGKGLEWMGMIYPGDSYTHYSQNFQGQVTISADKSISTAYLQWSSLKASDTAMYYCARDHWSRPFFDVWGQGTLVTVSS
B28: 1B20 variant B1 (antibody, part only; not given: light chain, probably the common parent VL, V domains shown, part only)
VH: QVQLVQSGAEVKKPGESLKISCKGSGYSFTDYYISWVRQMPGKGLEWMGIIYPGDSYTHYSPNFQGQVTISADKSISTAYLQWSSLKASDTAMYYCARDYWYTPFFDVWGQGTLVTVSS
B29: 1B20 variant F7 (antibody, part only; not given: light chain, V domains shown, part only)
VH: QVQLVQSGAEVKKPGESLKISCKGSGYSFTNYYIAWVRQMPGKGLEWMGIIYPGDSYTHYNPKFQGQVTISADKSISTAYLQWSSLKASDTAMYYCARDHWSRPFSDVWGQGTLVTVSS
B30: 1B20 variant B5 (antibody, part only; not given: light chain, probably the common parent VL, V domains shown, part only)
VH: QVQLVQSGAEVKKPGESLKISCKGSGYSFTDYYISWVRQMPGKGLEWMGMIYPGDSYTRYSPSFQGQVTISADKSISTAYLQSSSLKASDTAMYYCARDYWYKPFSDVWGQGTLVTVSS
B31: 1B20 variant F2 (antibody, part only; not given: light chain, V domains shown, part only)
VH: QVQLVQSGAEVKKPGESLKISCKGSGYSFTNYYIAWVRQMPGKGLEWMGVIYPGDSYTRYNPKFQGQVTISADKSISTAYLQWSSLKASDTAMYYCARDYWSRPYFDIWGQGTLVTVSS
B32: 1B20 variant B6 (antibody, part only; not given: light chain, probably the common parent VL, V domains shown, part only)
VH: QVQLVQSGAEVKKPGESLKISCKGSGYSFTDYYISWVRQMPGKGLEWMGIIYPGDSYTNYNPSFQGQVTISADKSISTAYLQWSSLKASDTAMYYCARDYWYRPFSDIWGQGTLVTVSS
B33: 1B20 variant D4 (antibody, part only; not given: light chain, probably the common parent VL, V domains shown, part only)
VH: QVQLVQSGAEVKKPGESLKISCKGSGYSFTDYYIAWVRQMPGKGLEWMGIIYPGDSYTRYNPKFQGQVTISADKSISTAYLQWSSLKASDTAMYYCARDYWSRPFSDVWGQGTLVTVSS

This assay addresses PCSK9. Description: Biacore SPR.
On to B1, for which the Kd is 2.11 nM.

Molecule B2 displayed a Kd of 2.15 nM. This Kd and that of the molecule before are within 1.5-fold of each other.

B3 returned an equilibrium dissociation constant (Kd) of 1.39 nM. Compared with the last molecule, the Kd is about 1.5-fold lower. To B4 belongs 1.52 nM; to B5, 1.28 nM; to B6, 1.36 nM. To B7 belongs 2.41 nM; to B8, 4.5 nM. To B9 belongs 2.68 nM.

In the case of B10, the Kd turned out to be 3.81 nM.

For B11, the Kd is 2.9 nM. This Kd and that of the molecule before are within 1.5-fold of each other. To B12 belongs 1.21 nM; to B13, 1.65 nM; to B14, 2.62 nM. To B15 belongs 2.01 nM; to B16, 1.35 nM. To B17 belongs 3.14 nM. In the case of B18, the Kd was determined as 1.53 nM. Regarding B19, the Kd is 3.47 nM. To B20 belongs 2.25 nM.

In turn, B21 displayed a Kd of 1.51 nM. The Kd values of the last two molecules are within 1.5-fold of each other. To B22 belongs 2.15 nM; to B23, 1.6 nM; to B24, 2.21 nM. To B25 belongs 1.19 nM. B26 gave a Kd of 2.01 nM. For B27, the Kd was 1.35 nM.

The molecule B28 came in with a Kd of 3.73 nM. Compared with the last molecule, the Kd is about 2.8-fold higher.

In turn, B29 registered a Kd of 1.26 nM. This Kd lies about 3-fold lower than the previous one.

As to B30, the Kd amounted to 1.36 nM. This Kd and that of the molecule before are within 1.5-fold of each other. To B31 belongs 1.01 nM; to B32, 2.88 nM; to B33, 1.91 nM.
